Values of other authors as cited in US20200069786A1, “COMPOSITION AND PROCESS FOR PREPARING VACCINE” (TREOS BIO ZRT., priority 2018, published 2020).
Read-outs that look alike come from different tables or passages of the source.

System: TSA
[1] = TSA expression rate in LUNG cancer

| Molecule | Expression Rate (ER) % [1] [%] | TSA Expression Rate (ER) (BREAST) [%] | Expression Rate (ER) % (TSA expression rate in CRC) [%] | also measured |
| --- | --- | --- | --- | --- |
| PTTG-1 (protein, UniProt O95997 2-202, looked up) Securin: ATLIYVDKENGEPGTRVVAKDGLKLGSGPSIKALDGRSQVSTPRFGKTFDAPPALPKATRKALGTVNRATEKSVKTKGPLKQKQPSFSAKKMTEKTVKAKSSVPASDDAYPEIEKFFPFNPLDFESFDLPEEHQIAHLPLSGVPLMILDEERELEKLFQLGPPSPVKMPSPPWESNLLQSPSSILSTLDVELPPVCCDIDI |  |  |  | TSA Expression Rate (ER) (LUNG): 20% |
| CABYR (protein, UniProt O75952 1-493, looked up) Calcium-binding tyrosine …: MISSKPRLVVPYGLKTLLEGISRAVLKTNPSNINQFAAAYFQELTMYRGNTTMDIKDLVKQFHQIKVEKWSEGTTPQKKLECLKEPGKTSVESKVPTQMEKSTDTDEDNVTRTEYSDKTTQFPSVYAVPGTEQTEAVGGLSSKPATPKTTTPPSSPPPTAVSPEFAYVPADPAQLAAQMLGKVSSIHSDQSDVLMVDVATSMPVVIKEVPSSEAAEDVMVAAPLVCSGKVLEVQVVNQTSVHVDLGSQPKENEAEPSTASSVPLQDEQEPPAYDQAPEVTLQADIEVMSTVHISSVYNDVPVTEGVVYIEQLPEQIVIPFTDQVACLKENEQSKENEQSPRVSPKSVVEKTTSGMSKKSVESVKLAQLEENAKYSSVYMEAEATALLSDTSLKGQPEVPAQLLDAEGAIKIGSEKSLHLEVEITSIVSDNTGQEESGENSVPQEMEGKPVLSGEAAEAVHSGTSVKSSSGPFPPAPEGLTAPEIEPEGESTAE | 16 |  |  | Expression Rate (ER) % (TSA expression rate in Esophageal): 17% |
| GAGE-7 (protein, UniProt O76087 1-117, looked up) G antigen 7: MSWRGRSTYYWPRPRRYVQPPEMIGPMRPEQFSDEVEPATPEEGEPATQRQDPAAAQEGEDEGASAGQGPKPEAHSQEQGHPQTGCECEDGPDGQEMDPPNPEEVKTPEEGEKQSQC |  | 31 |  | Expression Rate (ER) % (TSA expression rate in HEAD and NECK): 9% |
| CALR3 (protein, UniProt Q96L12 20-384, looked up) Calreticulin-3: TVYFQEEFLDGEHWRNRWLQSTNDSRFGHFRLSSGKFYGHKEKDKGLQTTQNGRFYAISARFKPFSNKGKTLVIQYTVKHEQKMDCGGGYIKVFPADIDQKNLNGKSQYYIMFGPDICGFDIKKVHVILHFKNKYHENKKLIRCKVDGFTHLYTLILRPDLSYDVKIDGQSIESGSIEYDWNLTSLKKETSPAESKDWEQTKDNKAQDWEKHFLDASTSKQSDWNGDLDGDWPAPMLQKPPYQDGLKPEGIHKDVWLHRKMKNTDYLTQYDLSEFENIGAIGLELWQVRSGTIFDNFLITDDEEYADNFGKATWGETKGPEREMDAIQAKEEMKKAREEEEEELLSGKINRHEHYFNQFHRRNEL | 9 | 0 | 16 | Expression Rate (ER) % (TSA expression rate in GASTRIC cancer): 40%; Expression Rate (ER) % (TSA expression rate in Kidney): 80%; Expression Rate (ER) % (TSA expression rate in MELANOMA): 44% |
| PIWIL3 (protein, UniProt Q7Z3Z3 1-882, looked up) Piwi-like protein 3: MPGRARTRARGRARRRESYQQEAPGGPRAPGSATTQEPPQLQSTPRPLQEEVPVVRPLQPRAARGGAGGGAQSQGVKEPGPEAGLHTAPLQERRIGGVFQDLVVNTRQDMKHVKDSKTGSEGTVVQLLANHFRVISRPQWVAYKYNVDYKPDIEDGNLRTILLDQHRRKFGERHIFDGNSLLLSRPLKERRVEWLSTTKDKNIVKITVEFSKELTPTSPDCLRYYNILFRRTFKLLDFEQVGRNYYTKKKAIQLYRHGTSLEIWLGYVTSVLQYENSITLCADVSHKLLRIETAYDFIKRTSAQAQTGNIREEVTNKLIGSIVLTKYNNKTYRVDDIDWKQNPEDTFNKSDGSKITYIDYYRQQHKEIVTVKKQPLLVSQGRWKKGLTGTQREPILLIPQLCHMTGLTDEICKDYSIVKELAKHTRLSPRRRHHTLKEFINTLQDNKKVRELLQLWDLKFDTNFLSVPGRVLKNANIVQGRRMVKANSQGDWSREIRELPLLNAMPLHSWLILYSRSSHREAMSLKGHLQSVTAPMGITMKPAEMIEVDGDANSYIDTLRKYTRPTLQMGMSCLLVFKVICILPNDDKRRYDSIKRYLCTKCPIPSQCVVKKTLEKVQARTIVTKIAQQMNCKMGGALWKVETDVQRTMFVGIDCFHDIVNRQKSIAGFVASTNAELTKWYSQCVIQKTGEELVKELEICLKAALDVWCKNESSMPHSVIVYRDGVGDGQLQALLDHEAKKMSTYLKTISPNNFTLAFIVVKKRINTRFFLKHGSNFQNPPPGTVIDVELTRNEWYDFFIVSQSVQDGTVTPTHYNVIYDTIGLSPDTVQRLTYCLCHMYYNLPGIIRVPAPCHYAHKLAYLVGQSIHQEPNRSLSTRLFYL | 7 |  | 96 | TSA Expression Rate (ER) (OVARIAN): 88% |
